In patent US5648211 one finds activity data, which are given here for one sequence.

The test system of this data set is BsrI. Put plainly: cleavage_in_vitro. As to conditions: PS at A in filled-in regions; SDA cycle turnover with Bst polymerase; 60 C, 6 mM MgCl2, 50 mM KCl, pH 7.6.

“CCACCTCTGACTTGAGCGTCCCAGTGTCAATACGGCGGAGCCTATGGAGTAACGCC / GCAAAAGGCCAGGAACCGATAAAAGGATGCGTTGCTGGCGTTACTCCATAGGCTCCG [linear SDA BsrI duplex (filled in to 92 bp)]” yielded an activity of 1 min⁻¹.
